In patent US11160869B2 (priority 2019, dated 2021):

Experiments:
colonic tissue = test: Pan-colonic administration in NHP: colonic biopsies (IL-10, IL-1Ra, pSTAT3/STAT3, cytokines, gene expression); type: in vivo, cynomolgus monkeys
Experimental: (§1) IL-10 delivery construct solution (at concentrations of 0.1, 0.3 and 1.0 mg/mL for the low, mid and high-dose groups respectively) was administered via the rectal route using sigmoidoscopy and a syringe connected to a spray nozzle with a 360° spray pattern. Serial biopsy samples were collected by sigmoidoscopy (pre-dose, 0.25, 0.5, 0.75, 8 and 24-28 hours post dose). Serial plasma samples from 0 min pre-dose to between 24-28 hours post-dose were collected for analysis for the IL-10 delivery construct.
Phosphorylation of STAT3 is an early downstream event following IL-10 receptor activation.
Colonic biopsies at each tissue timepoint were analyzed for local concentration of IL-10 delivery construct, total IL-10, IL-1Ra, soluble cytokines, activation of STAT3 and gene expression following administration of the IL-10 delivery construct. […] In addition, STC1, MTNR1A and VNN2 encode proteins that suppress the NFkβ signaling pathway, a pathway through which key pro-inflammatory cytokines are regulated. […] This is consistent with the ability of IL-10 to suppress these cells' activation or differentiation towards a pro-inflammatory immune phenotype.

STAT3 = test: pSTAT3/total STAT3 in colon tissue of non-inflamed mice (ELISA MSD); type: in vivo; settings: construct 1 mg/kg; rhIL-10 0.9 mg/kg; oral
[1] = Pan-colonic administration via sigmoidoscopy in NHP: plasma PK and PD; type: in vivo, cynomolgus monkeys
Experimental: as §1

ulcerative colitis = test: Phase 1b multiple ascending dose in patients with active ulcerative colitis; type: in vivo, human; settings: for placebo-adjusted mean reduction of FCP: baseline FCP >150 μg/g
Experimental: Data was gathered on the safety, tolerability, pharmacokinetics, pharmacodynamics, and initial clinical response following a multiple ascending dose (MAD) of the IL-10 delivery construct in adult patients with active UC over 14 days of treatment. […] A coating with a weight ratio of 50:50 of Eudragit® L30D55: Eudragit® FS30D was applied with a thickness of 14.8 to 16.0 mg/cm^2 and a weight of approximately 76 mg to each capsule. Placebo capsules were generated using similarly coated empty capsules.
A total of four cohorts were dosed with either 1 mg, 3 mg, 10, mg or 30 mg of the IL-10 delivery construct, randomized 3:1 to receive the IL-10 delivery construct or a placebo administered once daily for fourteen days. The goal of the trial was to assess the safety of the IL-10 delivery construct and any change in UC disease activity, through endoscopy, histology, biomarkers, and serum samples. Stool samples and colonic biopsies were obtained at baseline and day 14 of treatment to assess fecal calprotectin as well as histology based upon blinded central read of the Geboes scoring system. Fecal calprotectin is an objective marker of clinical response in UC studies and the Geboes scoring system is a measure of histological response. The Geboes scoring system of this example used a 0-22 point histologic scoring system in which higher scores represent more severe disease.

[2] = test system: IFNγ, IL-1β, IL-2, IL-6, IL-8, TNFα; test: Single oral capsule dose in NHP: plasma proinflammatory cytokines; type: in vivo, Macaca fascicularis
Experimental: The panel of cytokines (IFNγ, IL-1β, IL-2, IL-6, and IL-8) was evaluated using a multiplex kit available from MSD. The assays in this panel were sandwich immunoassays. The MSD plate came precoated with capture antibodies on independent and pre-defined spots, and samples were quantitated against an 8-point standard curve prepared using a mixture of the cytokines (Proinflammatory Panel 1 (human) Calibrator Blend) from MSD. The standards included 0 pg/mL and these concentration ranges: IFNγ (0.37-1500 pg/mL), IL-1β ([…]), IL-2 (0.36-1490 pg/mL), IL-6 (0.18-721 pg/mL) and IL-8 (0.14-553 pg/mL).
The MSD plate (pre-coated with capture antibodies) was washed 3 times with PBST before use. […] Following a wash step, 2×MSD Read buffer was added to the wells of the plate, and the plate read using the MSD Sector Imager 600 plate reader. […]
The purpose of the TNFα immunoassay was to quantify NHP TNFα concentration in plasma. […] Samples were quantitated using an 8-point standard curve prepared from a human TNFα calibrator that ranges in concentration from 5.6-4052 pg/mL and includes 0 pg/mL.
The biotinylated anti-NHP TNFα capture antibody was added to a MSD Small Spot Streptavidin plate and incubated for an hour at RT with shaking. […] Following a wash step, 2×MSD Read buffer was added to the wells of the plate, and the plate read using the MSD Sector Imager 600 plate reader. […]

[3] = 1 mg once daily for 14 days, n = 3 UC patients
[4] = 3 mg once daily for 14 days, n = 3 UC patients
[5] = 10 mg once daily for 14 days, n = 3 UC patients
[6] = 30 mg once daily for 14 days, n = 3 UC patients

B1: IL-10 delivery construct: recombinant homodimeric fusion protein: N-terminal methionine, cholix386 domain, polyGlySer spacer, recombinant human IL-10 (protein)
chain: MVEEALNIFDECRSPCSLTPEPGKPIQSKLSIPSDVVLDEGVLYYSMTINDEQNDIKDEDKGESIITIGEFATVRATRHYVNQDAPFGVIHLDITTENGTKTYSYNRKEGEFAINWLVPIGEDSPASIKISVDELDQQRNIIEVPKLYSIDLDNQTLEQWKTQGNVSFSVTRPEHNIAISWPSVSYKAAQKEGSRHKRWAHWHTGLALCWLVPMDAIYNYITQQNCTLGDNWFGGSYETVAGTPKVITVKQGIEQKPVEQRIHFSKGNAMSALAAHRVCGVPLETLARSRKPRDLTDDLSCAYQAQNIVSLFVATRILFSHLDSVFTLNLDEQEPEVAERLSDLRRINENNPGMVTQVLTVARQIYNDYVTHHPGLTPEQTSAGAQAGGGGSGGGGSGGGGSPGQGTQSENSCTHFPGNLPNMLRDLRDAFSRVKTFFQMKDQLDNLLLKESLLEDFKGYLGCQALSEMIQFYLEEVMPQAENQDPDIKAHVNSLGENLKTLRLRLRRCHRFLPCENKSKAVEQVKNAFNKLQEKGIYKAMSEFDIFINYIEAYMTMKIRN
modifications: homodimer
IL-1Ra concentration in colonic tissue (colonic tissue; 1, 3, 10 mg): not further augmented | total IL-10 in colonic tissue (colonic tissue; 1, 3, 10 mg): dose-dependent increase in total IL-10 | colonic MMP1, MMP3, MMP19 (colonic tissue; 8 h): also upregulated | colonic TIMP1, tissue repair and anti-microbial genes (colonic tissue; 8 h): also increased | colonic anti-inflammatory genes (CD163, miR24-2, NOX1 ...) (colonic tissue; 8 h): upregulated a number of anti-inflammatory genes | colonic pro-inflammatory genes (MHCII, PLA2G2D, CCL20, CCL13) (colonic tissue; 8 h): decreased a number of pro-inflammatory genes | colonic expression of CYP1A1 (colonic tissue; 8 h, 12-hour fast prior to treatment): downregulated | colonic tissue pSTAT3/STAT3 (colonic tissue; all doses tested): Higher ratios of colonic tissue pSTAT3/STAT3 | induction of pro-inflammatory cytokines in colonic tissue (colonic tissue; cynomolgus monkey, in vivo): not observed | time of peak total IL-10 in colonic tissue (colonic tissue; first sampling time point): 15 min | increase in ratio of pSTAT3 to total STAT3 (STAT3): approximately 50% | plasma IL-10 delivery construct concentration relative to IL-10 ([1]; 3 mg and 10 mg doses): 10 fold lower | systemic IFN-γ, IL-1β, IL-2, IL-8 ([1]; 1, 3, 10 mg): did not lead to an increase | plasma IL-1Ra ([1]; 1, 3 and 10 mg): induction of the plasma concentration of IL-1Ra was observed at all three doses | systemic IL-6 ([1]; 3 and 10 mg groups): moderately induced | time of maximal plasma IL-1Ra concentration ([1]; cynomolgus monkey, in vivo): 3 to 4 h | time to detection of total IL-10 in plasma ([1]; single dose 1, 3 or 10 mg pan-colonic): ≤ 15 min | # of TEASs (ulcerative colitis; [3]): 2 | TEASs (% pts) (ulcerative colitis; [3]): 67% | placebo-adjusted mean reduction of FCP (ulcerative colitis; 1 mg, 14 days): 44% | # of TEASs (ulcerative colitis; [4]): 7 | TEASs (% pts) (ulcerative colitis; [4]): 67% | placebo-adjusted mean reduction of FCP (ulcerative colitis; 3 mg, 14 days): 27% | FCP activity at higher doses (ulcerative colitis; 10 mg and 30 mg): diminution of activity at higher doses | # of TEASs (ulcerative colitis; [5]): 5 | TEASs (% pts) (ulcerative colitis; [5]): 67% | Geboes score of one UC patient (22 point scale) (ulcerative colitis; 10 mg, pre-dose to 14 days): improved from a score of 15 to a score of three | # of TEASs (ulcerative colitis; [6]): 6 | TEASs (% pts) (ulcerative colitis; [6]): 67% | tolerability in patients with UC (ulcerative colitis; 1, 3, 10, 30 mg once daily 14 days): well tolerated | CRP levels compared to placebo (ulcerative colitis; 1 and 3 mgs, baseline CRP greater than 5 mg/L): greater reductions in CRP levels | TEAEs in the 12 active patients (ulcerative colitis; 14 days): 20 | patients with reduced Geboes scores (ulcerative colitis; 14 days, (6/10) active patients): 60% | # of TEASs (ulcerative colitis; All Active, n = 12 UC patients): 20 | TEASs (% pts) (ulcerative colitis; All Active, n = 12 UC patients): 67% | detection in systemic circulation (ulcerative colitis; human, in vivo): not detected in systemic circulation | treatment emergent AEs of anemia or thrombocytopenia (ulcerative colitis; human, in vivo): no treatment emergent AEs of anemia or thrombocytopenia were observed | plasma IFNγ, IL-1β, IL-2, IL-8, IL-6 ([2]; 1, 4, 20.5, 82 mg oral capsules): not associated with any consistent trends | plasma TNFα ([2]; all samples): below the limit of detection
